In article doi:10.1101/2022.05.23.492800 (2022):

Experiments:
Assay in all cases: multimer staining
[1] = target: T1, SARS-CoV-2 Spike protein peptide on HLA-A*23:01 (human)
T1 peptide: QYIKWPWYIW

[2] = target: T2, SARS-CoV-2 Spike protein peptide on HLA-A*24:02 (human)
T2 peptide: QYIKWPWYIW

[3] = target: T3, SARS-CoV-1 Spike protein peptide on HLA-A*24:02 (human)
T3 peptide: QYIKWPWYVW

Measured: binding result

B1: TCRQYI (TCR)
alpha TRAV20*01 TRAJ32*01 CDR3: CAALNYGGATNKLIF
beta TRBV4-3*01 TRBJ2-7*01 CDR3: CASSPSGGAYEQYF
recognises: all assays above
